Experimental data as given in the supplement of paper PMC9112550, “Optimization of the antimicrobial peptide Bac7 by deep mutational scanning” (BMC Biology, 2022).

Each sequence was assayed on Escherichia coli TOP10 (assay: shrunken log2 fold change of peptide-encoding DNA abundance (4.5 h post-induction vs induction); higher = less antimicrobial activity (less host growth inhibition)). Conditions: time post-induction: 4.5 h; library: site-saturation at positions 5, 18, 19, 20.
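Note: peptides expressed intracellularly from a pBAD plasmid library in pooled LB shake-flask culture, induced with 0.3% L-arabinose, DNA abundance read by NGS, three biological replicates, DESeq2 with apeglm shrinkage.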

Sequence	shrunken log2 fold change
RRIRRRPPRLPRPRPRPCPTPRP	0.288
RRIRRRPPRLPRPRPRPCQCPRP	0.0262
RRIRRRPPRLPRPRPRPCQGPRP	-0.129
RRIRRRPPRLPRPRPRPCSPPRP	-0.125
RRIRRRPPRLPRPRPRPCVFPRP	0.022
RRIRRRPPRLPRPRPRPCVIPRP	-0.0371
RRIRRRPPRLPRPRPRPCVYPRP	-0.42
RRIRRRPPRLPRPRPRPCWYPRP	-0.112
RRIRRRPPRLPRPRPRPDASPRP	0.0354
RRIRRRPPRLPRPRPRPDCPPRP	0.4
RRIRRRPPRLPRPRPRPDEIPRP	0.116
RRIRRRPPRLPRPRPRPDEPPRP	-0.0328
RRIRRRPPRLPRPRPRPDHGPRP	-0.146
RRIRRRPPRLPRPRPRPDHSPRP	0.0322
RRIRRRPPRLPRPRPRPDIIPRP	-0.135
RRIRRRPPRLPRPRPRPDITPRP	0.303
RRIRRRPPRLPRPRPRPDKTPRP	0.119
RRIRRRPPRLPRPRPRPDLGPRP	0.104
RRIRRRPPRLPRPRPRPDNTPRP	0.876
RRIRRRPPRLPRPRPRPDPEPRP	0.307
RRIRRRPPRLPRPRPRPDSKPRP	-0.0649
RRIRRRPPRLPRPRPRPDTCPRP	0.133
RRIRRRPPRLPRPRPRPDTIPRP	-0.15
RRIRRRPPRLPRPRPRPDTLPRP	0.06
RRIRRRPPRLPRPRPRPDTPPRP	0.342

Sequence	shrunken log2 fold change
RRIRRRPPRLPRPRPRPDVGPRP	-0.042
RRIRRRPPRLPRPRPRPDVWPRP	0.611
RRIRRRPPRLPRPRPRPECAPRP	0.426
RRIRRRPPRLPRPRPRPECMPRP	0.921
RRIRRRPPRLPRPRPRPECPPRP	0.176
RRIRRRPPRLPRPRPRPECTPRP	0.517
RRIRRRPPRLPRPRPRPEDDPRP	1.11
RRIRRRPPRLPRPRPRPEEDPRP	-0.0235
RRIRRRPPRLPRPRPRPEFVPRP	-0.0836
RRIRRRPPRLPRPRPRPEGSPRP	0.223
RRIRRRPPRLPRPRPRPEHDPRP	0.356
RRIRRRPPRLPRPRPRPEHIPRP	-0.13
RRIRRRPPRLPRPRPRPEHLPRP	0.242
RRIRRRPPRLPRPRPRPEIKPRP	0.27
RRIRRRPPRLPRPRPRPEIQPRP	0.0536
RRIRRRPPRLPRPRPRPELSPRP	0.0649
RRIRRRPPRLPRPRPRPEMLPRP	0.0638
RRIRRRPPRLPRPRPRPEMQPRP	0.114
RRIRRRPPRLPRPRPRPENVPRP	-0.0722
RRIRRRPPRLPRPRPRPEPEPRP	0.837
RRIRRRPPRLPRPRPRPEPGPRP	0.587
RRIRRRPPRLPRPRPRPEPLPRP	0.137
RRIRRRPPRLPRPRPRPEPVPRP	0.367
RRIRRRPPRLPRPRPRPEQGPRP	0.0344
RRIRRRPPRLPRPRPRPESCPRP	0.763

Sequence	shrunken log2 fold change
RRIRRRPPRLPRPRPRPETKPRP	0.511
RRIRRRPPRLPRPRPRPETTPRP	1.09
RRIRRRPPRLPRPRPRPEYNPRP	-0.103
RRIRRRPPRLPRPRPRPEYPPRP	-0.137
RRIRRRPPRLPRPRPRPEYQPRP	0.119
RRIRRRPPRLPRPRPRPFAPPRP	0.368
RRIRRRPPRLPRPRPRPFARPRP	0.217
RRIRRRPPRLPRPRPRPFEVPRP	0.0871
RRIRRRPPRLPRPRPRPFFTPRP	0.501
RRIRRRPPRLPRPRPRPFGDPRP	-0.0397
RRIRRRPPRLPRPRPRPFIRPRP	-0.326
RRIRRRPPRLPRPRPRPFIYPRP	-0.194
RRIRRRPPRLPRPRPRPFKEPRP	0.00168
RRIRRRPPRLPRPRPRPFKQPRP	-0.182
RRIRRRPPRLPRPRPRPFKTPRP	-0.0587
RRIRRRPPRLPRPRPRPFKYPRP	-0.252
RRIRRRPPRLPRPRPRPFMHPRP	0.0444
RRIRRRPPRLPRPRPRPFNIPRP	-0.491
RRIRRRPPRLPRPRPRPFNNPRP	0.221
RRIRRRPPRLPRPRPRPFNQPRP	-0.0554
RRIRRRPPRLPRPRPRPFPSPRP	0.114
RRIRRRPPRLPRPRPRPFPVPRP	0.271
RRIRRRPPRLPRPRPRPFQGPRP	-0.0527
RRIRRRPPRLPRPRPRPFRAPRP	0.251
RRIRRRPPRLPRPRPRPFSEPRP	-0.0505
